# From the supplement of paper PMC9732359
# ± gives the uncertainty stated by the source.
# Experiment: protein stability index of a GFP-peptide fusion (yeast GPS) (PSI 1-4); higher = more stable; sorted into four equal gates, so the index is relative within each strain
# Conditions: pdr5∆
# Method in brief: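 Tiled 17-residue peptides from yeast proteins were fused downstream of GFP on a plasmid that also expresses Cherry, and the pooled library was carried in yeast. Mid-log cultures grown in leucine-free medium were sorted into four equal gates by GFP/Cherry fluorescence ratio. Plasmids from each gate were PCR-amplified and Illumina-sequenced, and reads were assigned to strains by barcodes. Each peptide's protein stability index is the sum, over gates, of the gate's read frequency multiplied by its gate number.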
row,Sequence,protein stability index
1,MNGNGKPGIPRGNTKIH [SIR3],2.83 ± 0.23

# Same assay, conditions: san1∆
row,Sequence,protein stability index
1,LREKEDKKNSSDPNNQS [YJL039C/NUP192],3.17 ± 0.099
2,LRFGEGASGEERLMSRP [PUP2],3.21 ± 0.1
3,LRHMPLASIPDIFITPT [SSN2],1.47 ± 0.068
4,LRKQKDSSTTSSNSQQS [ITC1],3.07 ± 0.06
5,LRRSGQIANDPSKKRRR [SMD1],2.73 ± 0.086
6,LRSDFYILANHYLSRVL [YJL039C/NUP192],2.59 ± 0.07
7,LRSKLFQFKLLQSNSKL [SMC4],1.59 ± 0.079
8,LSALNSEISSLKGKINN [SMC1],3.08 ± 0.064
9,LSDIETAVNGIDTDLFG [YGL172W/NUP49],3.2 ± 0.062
10,LSDLSSPVQDWNLLRSL [YML103C/NUP188],2.86 ± 0.1
11,LSDYEVLKFLTDLEKKH [RPC17],3.08 ± 0.086
12,LSDYIPGPYPNEQAARA [CYT1],2.4 ± 0.063
13,LSEEETLLVIRRLHKVL [SNF2],1.84 ± 0.11
14,LSERKAEKAEIRKRRAS [RPS6A],3.24 ± 0.13
15,LSGIIQDIYYLAQTLKL [RRI2],1.14 ± 0.092
16,LSGLSADKPFTRLTAYQ [YML031W/NDC1],2.95 ± 0.058
17,LSIICVGGHNVTIREQI [SIR3],1.78 ± 0.092
18,LSILNEIKKVTQIVAKF [SIN4],2.37 ± 0.11
19,LSKLEKALDRHEFFIAN [SRP68],2.55 ± 0.049
20,LSLYSTDLENSSLFQEK [ECM29],3 ± 0.053
21,LSMNIAPRLRLEDIFQQ [RET1],1.98 ± 0.057
22,LSNLHESNKRYRFFKKI [SNF12],2.9 ± 0.08
23,LSQNESTRASTVPNLPT [ISW2],2.46 ± 0.045
24,LSRKPSDNKKRSGSNAA [RPC82],3.03 ± 0.045
25,LSSELDSNKTLLHNHLK [SMC2],3.17 ± 0.048
26,LSTSVGWKYEDVVAKLE [RPL16A],3.5 ± 0.14

row,Sequence,protein stability index
1,LTDLDSPSEFVDVAIPC [RPS0A],2.31 ± 0.077
2,LTEGGSILEEKIAVLNN [SMC1],3.32 ± 0.11
3,LTESQTETYISDLVNQG [RPN5],3.12 ± 0.051
4,LTFNSKNIQSKDSYINA [FAS2],2.73 ± 0.17
5,LTGNQLPTPTPTEMEPD [SWI1],2.51 ± 0.062
6,LTHPKYLNSRIIPTTLE [YML103C/NUP188],2.05 ± 0.049
7,LTSFAEENNYQYGYSGS [SNF6],2.74 ± 0.11
8,LTSVTNDICSVENYETS [SIR4],1.88 ± 0.062
9,LTVDNLSIAIVGKDTPF [PRE5],2.62 ± 0.05
10,LVDKRIDMLPMLLGTDL [DIS3],2.27 ± 0.08
11,LVDQGFNYSGKDMLYSG [RET1],3.36 ± 0.052
12,LVGSEIYEKLKNYLKNY [CDC53],1.09 ± 0.16
13,LVLPPVVTSSVAESFTD [SNF2],2.39 ± 0.084
14,LVNGFSQSQQKLLKEKV [MED2],2.41 ± 0.066
15,LVNIRTQTSKEQEIENN [ITC1],2.9 ± 0.061
16,LVPPPRTIANQDHFHRL [RPR2],2.88 ± 0.051
17,LVQKTVQESGNIDYQKG [GRR1],3.2 ± 0.09
18,LVRSIIAFDDLIENKIQ [RPN8],2.45 ± 0.082
19,LVSEKIINSTALMKEKD [RPC82],3.11 ± 0.084
20,LVSVTSTLQHFQETLDS [MED8],2.43 ± 0.054
21,LVVYAEDNGIVKALRNV [RPL4A],2.59 ± 0.086
22,LVYDVKGRFAVHRITDE [RPS4A],3.46 ± 0.07
23,LWRNFCRKLSFSDKVNA [ITC1],1.14 ± 0.23
24,LYAVSTFENTNNTEKND [SIR4],2.5 ± 0.083
25,LYQIWIVMVWLKENTYV [YDL116W/NUP84],2.11 ± 0.097
26,LYQLFKTCIQGINSPLS [YJL039C/NUP192],1.64 ± 0.16

row,Sequence,protein stability index
1,LYRYRFDPFQAVSRSMT [ECM29],2.76 ± 0.057
2,LYVPRKCSATNRIIKAD [RPS21A],2.13 ± 0.12
3,LYYPQKPLGTTRAMEYL [RPB2],2.05 ± 0.14
4,MAISKNLPILKNHFRKH [RPL13A],2.87 ± 0.081
5,MAKCLDNPDQGISDMCR [YCS4],3.33 ± 0.13
6,MAPFRQDSILIIYPRSQ [ARP9],2.82 ± 0.083
7,MAQNKTHIPQTNLKNHP [YLR018C/POM34],2.75 ± 0.058
8,MASLPHPKIVKKHTKKF [RPL32],2.22 ± 0.088
9,MASRVDETTVPSYYYYV [ROX3],1.94 ± 0.096
10,MAVGKNKRLSKGKKGQK [RPS1A],1.65 ± 0.15
11,MAYFDENLNRNWRGREH [BRN1],2.99 ± 0.091
12,MDALTLMKCCHEAYSII [RRP45],1.84 ± 0.099
13,MDIILGIRVQDSVILAS [PRE1],1.71 ± 0.24
14,MDLLKFSSLAISEINFL [CSI1],2.16 ± 0.053
15,MDPGAPLPVETPRDRRK [SSN2],3.25 ± 0.25
16,MEDIEKIKPYVRSFSKA [LRP1],2.51 ± 0.069
17,MEEEQQRQERLRQQQQQ [RPN10],3.37 ± 0.066
18,MENNEPAMAMEDLKNFI [SRB8],3.24 ± 0.043
19,MFAYAKEHEPCIIFMDE [RPT4],2.24 ± 0.065
20,MFLYILKHLEEMGKLRE [RRI2],3.04 ± 0.078
21,MFRNNYDGDTVTFSPTG [PRE5],2.52 ± 0.11
22,MFTQIYLERIELSFYIL [YML103C/NUP188],1.36 ± 0.1
23,MGKGKPRGLNSARKLRV [RPS23A],2.96 ± 0.094
24,MGPLSNIAQMIPGMSNM [SRP54],2.58 ± 0.048
25,MGRVIRNQRKGAGSIFT [RPL2A],2.77 ± 0.25
26,MGVPIYGIVAMAATATD [FAS2],1.54 ± 0.089

row,Sequence,protein stability index
1,MIKESSTANPNIKLLNN [POP1],2.83 ± 0.087
2,MIQEVIVEEDLEPFEAS [FAS2],3.53 ± 0.063
3,MISIIKLVTNVVDPKTS [YML103C/NUP188],2.04 ± 0.093
4,MKAVRKVAEVKKLEGTI [RPT4],3.16 ± 0.073
5,MKFQESLKKVDEIKAQR [SMC4],3.34 ± 0.17
6,MKKKLELISYRNESLKN [SRB8],2.94 ± 0.05
7,MKLNISYPVNGSQKTFE [RPS6A],2.79 ± 0.12
8,MKLSMPPEVTSSNCHVR [POP1],2.32 ± 0.076
9,MKNENANPKKLALMTAH [CDC53],2.09 ± 0.048
10,MKRNCGQIITLFSSRRL [RMP1],2.42 ± 0.058
11,MLLANISVARKIYDAFP [DIS3],2 ± 0.093
12,MLLITSGDSGVYTLACR [RPC11],3 ± 0.093
13,MLLLNIFISSDHEFVLI [YMR129W/POM152],1.32 ± 0.098
14,MLLVDIIPSRMGEAQTG [REC8],2.02 ± 0.09
15,MLQKKLVEVEDEKIEAI [SRB7],3.16 ± 0.082
16,MLTIARLGFFYNDQLYV [RPN7],1.47 ± 0.29
17,MLVKAVANSTKAAFIRV [RPT3],1.38 ± 0.11
18,MMEEIINVVIKASRKSV [ECM29],2.04 ± 0.21
19,MMLGEHLMSWSKTGIIA [SIN4],1.06 ± 0.13
20,MMVNNQTMQLIKNVQDL [SRB6],1.64 ± 0.13
21,MNDVINTEEVNRLEKEQ [LIN1],3.27 ± 0.074
22,MNGIQVDINRLKKGEVS [PRE3],2.52 ± 0.082
23,MNGNGKPGIPRGNTKIH [SIR3],3.32 ± 0.094

# Same assay, conditions: ubr1∆
row,Sequence,protein stability index
1,LREKEDKKNSSDPNNQS [YJL039C/NUP192],3.33 ± 0.071
